{
  "source": "patent US20150093386A1",
  "assay_in_all_cases": "cell-based or functional assay",
  "key": {"[1]": {"biological_target": "EGFR overexpressed on U87 MG EGFR cells (UniProt P00533)"}, "[2]": {"biological_target": "EGFRvIII (EGFR with deletion of exons 2-7) on U87 MG-EGFRvIII cells (human) (UniProt P00533)"}, "[3]": {"biological_target": "endogenous EGFR at low level on U87 MG cells (human) (UniProt P00533)"}},
  "data": [
    {"substance": "humanized monoclonal antibody ch806", "values": [
      {"measurement": "EC50 values of cytotoxicity on MG-EGFR cells", "setting": "[1]", "value": 6.48, "unit": "µM"},
      {"measurement": "cytotoxicity % at 0.0002 nM, U87 MG EGFR cells with PBMC", "setting": "[1]", "value": 1.89, "unit": "%"},
      {"measurement": "cytotoxicity % at 0.002 nM, U87 MG EGFR cells with PBMC", "setting": "[1]", "value": 0.61, "unit": "%"},
      {"measurement": "cytotoxicity % at 0.02 nM, U87 MG EGFR cells with PBMC", "setting": "[1]", "value": 1.31, "unit": "%"},
      {"measurement": "cytotoxicity % at 0.2 nM, U87 MG EGFR cells with PBMC", "setting": "[1]", "value": 0.37, "unit": "%"},
      {"measurement": "cytotoxicity % at 2 nM, U87 MG EGFR cells with PBMC", "setting": "[1]", "value": 0.49, "unit": "%"},
      {"measurement": "cytotoxicity % at 20 nM, U87 MG EGFR cells with PBMC", "setting": "[1]", "value": 4.92, "unit": "%"},
      {"measurement": "EC50 values of cytotoxicity on U87 MG-EGFRvIII cells", "setting": "[2]", "value": 0.0408, "unit": "µM"},
      {"measurement": "cytotoxicity % at 0.0002 nM, U87 MG EGFRvIII cells with PBMC", "setting": "[2]", "value": 0.41, "unit": "%"},
      {"measurement": "cytotoxicity % at 0.002 nM, U87 MG EGFRvIII cells with PBMC", "setting": "[2]", "value": 0.62, "unit": "%"},
      {"measurement": "cytotoxicity % at 0.02 nM, U87 MG EGFRvIII cells with PBMC", "setting": "[2]", "value": 0.76, "unit": "%"},
      {"measurement": "cytotoxicity % at 0.2 nM, U87 MG EGFRvIII cells with PBMC", "setting": "[2]", "value": 15.6, "unit": "%"},
      {"measurement": "cytotoxicity % at 2 nM, U87 MG EGFRvIII cells with PBMC", "setting": "[2]", "value": 22.3, "unit": "%"},
      {"measurement": "cytotoxicity % at 20 nM, U87 MG EGFRvIII cells with PBMC", "setting": "[2]", "value": 36.3, "unit": "%"},
      {"measurement": "cytotoxicity % at 0.0002 nM, U87 MG cells with PBMC", "setting": "[3]", "value": 0.96, "unit": "%"},
      {"measurement": "cytotoxicity % at 0.002 nM, U87 MG cells with PBMC", "setting": "[3]", "value": 0.71, "unit": "%"},
      {"measurement": "cytotoxicity % at 0.02 nM, U87 MG cells with PBMC", "setting": "[3]", "value": 0.71, "unit": "%"},
      {"measurement": "cytotoxicity % at 0.2 nM, U87 MG cells with PBMC", "setting": "[3]", "value": 0.07, "unit": "%"},
      {"measurement": "cytotoxicity % at 2 nM, U87 MG cells with PBMC", "setting": "[3]", "value": 0.28, "unit": "%"},
      {"measurement": "cytotoxicity % at 20 nM, U87 MG cells with PBMC", "setting": "[3]", "value": 4.18, "unit": "%"}
    ]}
  ]
}
